3 compounds from paper PMC6626918 (Frontiers in Microbiology, 2019) can be followed below.

The target of experiment [1] is T1, AhpC (BthAhpC) (Burkholderia thailandensis, UniProt Q2SWT3).
T1 construct: gene BTH_I2092
The settings on record: read-out: Systems / AhpD / Km.

Experiment [2] addresses Alkyl hydroperoxide reductase subunit C (AhpC) of Burkholderia thailandensis E264, GST-tagged (Burkholderia thailandensis E264) (UniProt Q2SWT3).

On to `CC(C)(OO)c1ccccc1` [CHP], for which the Km in experiment [1] was 57.6 ± 1.2 µM.

In the case of `CC(C)(C)OO` [t-BOOH], the Km in experiment [1] came out at 60.1 ± 1.8 µM.

“Thioredoxin C (TrxC) of Burkholderia thailandensis E264 (enzyme)”: in experiment [2], the Km of AhpC peroxidase activity for TrxC (NADPH consumption at 340 nm; TrxC varied 0-500 μM, 1 μM AhpC, 1 mM CHP, TrxR system) is 147 µM; the Km of AhpC peroxidase activity for TrxC (NADPH consumption at 340 nm; TrxC varied 0-500 μM, 1 μM AhpC, 1 mM H2O2, TrxR system) was 348 µM; the Km of AhpC peroxidase activity for TrxC (NADPH consumption at 340 nm; TrxC varied 0-500 μM, 1 μM AhpC, 1 mM t-BOOH, TrxR system) came to 202 µM.
